Reference: US20240116985A1 (published 2024)
Starred links: 1 amine or outer side, 2 acyl side, 3 side chain; linkers in the order of their positions; H or OH if unused. Positions of bridges follow the written chain, without caps; N, C: chain ends. Non-standard residues stand in square brackets, D forms with d. Primed or numbered codes have the meaning given here. (CH2CMe2CO2H)TriAzDab = (S)-2-amino-4-(4-(2-carboxy-2-methylpropyl)-1H-1,2,3-triazol-1-yl)butanoic acid, CC(C)(Cc1cn(CC[C@H](N[*:1])C(=O)[*:2])nn1)C(=O)[*:3]; (CMe2CO2H)TriAzDab = (S)-2-amino-4-(4-(2-carboxypropan-2-yl)-1H-1,2,3-triazol-1-yl)butanoic acid, CC(C)(C(=O)[*:3])c1cn(CC[C@H](N[*:1])C(=O)[*:2])nn1; (CMe2CO2H)TriAzDap = (S)-2-amino-3-(4-(2-carboxypropan-2-yl)-1H-1,2,3-triazol-1-yl)propanoic acid, CC(C)(C(=O)[*:3])c1cn(C[C@H](N[*:1])C(=O)[*:2])nn1; PyrS2″ = (S)-3-amino-1-((pent-4-en-1-yloxy)carbonyl)pyrrolidine-3-carboxylic acid (stapling residue), C=CCCCOC(=O)N1CC[C@@](N[*:1])(C(=O)[*:2])C1; (CH2CH2CO2H)TriAzDap = (S)-2-amino-3-(4-(2-carboxyethyl)-1H-1,2,3-triazol-1-yl)propanoic acid, O=C([C@H](Cn1cc(CCC(=O)[*:3])nn1)N[*:1])[*:2]; B5(4) = 2,2-bis(4-pentenyl)glycine = 2-amino-2-(pent-4-en-1-yl)hept-6-enoic acid (stitching residue), C=CCCCC(CCCC=C)(N[*:1])C(=O)[*:2]; B5(5) = 2,2-bis(4-pentenyl)glycine, 2-amino-2-(pent-4-en-1-yl)hept-6-enoic acid (stitching residue), C=CCCCC(CCCC=C)(N[*:1])C(=O)[*:2]; B5(9) = 2-amino-2-(pent-4-en-1-yl)hept-6-enoic acid (2,2-bis(4-pentenyl)glycine), C=CCCCC(CCCC=C)(N[*:1])C(=O)[*:2]; Phe(3-COOH) = N[C@@H](Cc1cccc(C(=O)O)c1)C(=O)O; 2F3MeF = Cc1cccc(C[C@H](N[*:1])C(=O)[*:2])c1F; Phe(2-CF3) = N[C@@H](Cc1ccccc1C(F)(F)F)C(=O)O; d(βAsp) = O=C(O)[C@@H](CC(=O)[*:2])N[*:1]; Bta = N[C@@H](Cc1csc2ccccc12)C(=O)O; αAllylPro = C=CC[C@@]1(C(=O)O)CCCN1; tBuAla = CC(C)(C)C[C@H](N)C(=O)O; 3Thi = N[C@@H](Cc1ccsc1)C(=O)O; S8 = C=CCCCCCC[C@](C)(N)C(=O)O; PyrS2(4) = not defined here

Experiments:
[1] = target: T1, B-cat-Halo (beta-catenin HaloTag construct expressed in HEK293 cells) (UniProt P35222 1-781); experiment: cell-based or functional assay
T1 sequence (looked up): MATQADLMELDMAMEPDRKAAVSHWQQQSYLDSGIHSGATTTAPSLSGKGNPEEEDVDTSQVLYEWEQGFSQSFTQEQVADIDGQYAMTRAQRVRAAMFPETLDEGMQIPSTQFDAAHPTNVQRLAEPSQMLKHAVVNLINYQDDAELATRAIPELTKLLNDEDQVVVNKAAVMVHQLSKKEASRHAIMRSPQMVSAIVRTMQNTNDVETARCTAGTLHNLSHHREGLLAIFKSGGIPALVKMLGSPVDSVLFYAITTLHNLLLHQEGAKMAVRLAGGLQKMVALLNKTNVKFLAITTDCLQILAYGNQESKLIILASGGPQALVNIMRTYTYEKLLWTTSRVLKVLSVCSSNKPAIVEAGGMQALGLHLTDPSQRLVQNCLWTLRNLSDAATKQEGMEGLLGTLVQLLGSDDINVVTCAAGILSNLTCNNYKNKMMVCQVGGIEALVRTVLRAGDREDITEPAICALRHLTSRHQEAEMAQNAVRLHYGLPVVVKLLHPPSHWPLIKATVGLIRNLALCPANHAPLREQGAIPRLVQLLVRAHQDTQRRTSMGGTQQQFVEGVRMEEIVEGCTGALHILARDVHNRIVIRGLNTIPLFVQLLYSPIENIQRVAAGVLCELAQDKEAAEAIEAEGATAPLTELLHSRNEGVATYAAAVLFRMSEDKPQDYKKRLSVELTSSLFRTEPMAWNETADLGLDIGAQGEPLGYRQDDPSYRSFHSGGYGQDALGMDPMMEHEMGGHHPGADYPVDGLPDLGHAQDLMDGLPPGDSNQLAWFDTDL

Bcat-Halo = target: T2, Bcat-Halo (UniProt P35222 1-781); experiment: cell-based or functional assay
T2 sequence (looked up): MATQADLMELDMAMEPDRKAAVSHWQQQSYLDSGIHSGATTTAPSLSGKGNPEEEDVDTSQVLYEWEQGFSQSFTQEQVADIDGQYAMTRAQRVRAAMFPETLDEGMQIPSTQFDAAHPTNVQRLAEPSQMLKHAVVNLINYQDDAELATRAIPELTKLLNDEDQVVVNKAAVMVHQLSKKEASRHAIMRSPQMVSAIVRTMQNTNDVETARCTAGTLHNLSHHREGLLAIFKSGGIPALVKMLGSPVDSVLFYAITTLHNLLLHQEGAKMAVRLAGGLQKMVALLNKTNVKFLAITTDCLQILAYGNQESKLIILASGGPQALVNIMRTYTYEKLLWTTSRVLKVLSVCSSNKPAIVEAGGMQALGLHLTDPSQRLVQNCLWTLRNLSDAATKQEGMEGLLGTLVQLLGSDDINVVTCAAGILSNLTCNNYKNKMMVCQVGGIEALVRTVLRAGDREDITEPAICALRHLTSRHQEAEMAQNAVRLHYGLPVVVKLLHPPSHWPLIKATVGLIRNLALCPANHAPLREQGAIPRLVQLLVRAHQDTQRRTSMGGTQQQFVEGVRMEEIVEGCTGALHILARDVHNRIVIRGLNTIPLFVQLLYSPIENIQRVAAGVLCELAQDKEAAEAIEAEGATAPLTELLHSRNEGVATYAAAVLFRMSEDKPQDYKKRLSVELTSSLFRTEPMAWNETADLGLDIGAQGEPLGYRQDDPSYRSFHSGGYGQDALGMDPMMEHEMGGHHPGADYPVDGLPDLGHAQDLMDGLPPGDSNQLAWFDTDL

[2] = target: T3, full-length beta-Catenin (Uniprot ID P35222) (Homo sapiens (Human), UniProt P35222 2-781); experiment: fluorescence polarization competition, full-length beta-catenin with 5FAM-TCF4(10-53) probe as competitor
T3 construct: 'mature' is the nearest allowed form; also called bCat; B-Catenin
T3 sequence: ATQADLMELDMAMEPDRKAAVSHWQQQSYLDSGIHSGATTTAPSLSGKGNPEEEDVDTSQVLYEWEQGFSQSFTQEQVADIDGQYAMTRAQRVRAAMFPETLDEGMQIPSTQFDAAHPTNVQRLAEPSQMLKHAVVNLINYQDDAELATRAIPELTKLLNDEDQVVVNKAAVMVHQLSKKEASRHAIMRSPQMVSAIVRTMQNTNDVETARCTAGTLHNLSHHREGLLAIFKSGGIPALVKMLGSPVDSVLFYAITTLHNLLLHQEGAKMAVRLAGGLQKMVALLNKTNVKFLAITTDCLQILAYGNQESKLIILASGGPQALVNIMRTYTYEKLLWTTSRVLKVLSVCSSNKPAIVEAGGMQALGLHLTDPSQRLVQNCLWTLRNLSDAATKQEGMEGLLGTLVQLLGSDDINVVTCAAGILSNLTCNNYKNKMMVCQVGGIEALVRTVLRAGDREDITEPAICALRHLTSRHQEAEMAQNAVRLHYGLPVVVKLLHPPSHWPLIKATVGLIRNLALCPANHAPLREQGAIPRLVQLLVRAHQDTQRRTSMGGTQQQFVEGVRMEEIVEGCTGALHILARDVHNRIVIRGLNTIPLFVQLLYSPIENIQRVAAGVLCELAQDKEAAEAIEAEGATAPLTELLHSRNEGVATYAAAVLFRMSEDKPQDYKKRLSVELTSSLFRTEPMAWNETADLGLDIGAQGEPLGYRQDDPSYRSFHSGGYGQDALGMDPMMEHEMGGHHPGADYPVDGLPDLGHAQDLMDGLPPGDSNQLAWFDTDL
Protocol: The plate was incubated protected from light for 60 minutes at 20° C. prior to read. Reads were performed on a CLARIOstar plate reader (BMG Labtech) in duplicate, and data were fitted to a 1:1 binding model with hill slope using an in-house script. All provided concentrations are final concentrations.

Binder	NanoBRET Abs IC50 (Bcat-Halo)	EC50 [2]	other results
Ac-[αAllylPro]D[tBuAla][B5(4)]D[Phe(3-COOH)]NAFL[PyrS2″][Phe(2-CF3)][Bta]A-NH2 (staple 1-4, 4-11) [I-2058]			NanoBRET Abs IC50 [1]: 3.9 µM
Ac-[αAllylPro]D[tBuAla][B5(4)]D[(CH2CMe2CO2H)TriAzDab]AAFL[PyrS2″][3Thi][Bta]Q-NH2 (staple 1-4, 4-11) [I-2077]	12.3 µM		
Ac-[αAllylPro]D[tBuAla][B5(4)]D[(CMe2CO2H)TriAzDap]AAFL[PyrS2″][3Thi][Bta]Q-NH2 (staple 1-4, 4-11) [I-2085]	6.2 µM		
Ac-[αAllylPro]D[tBuAla][B5(4)]D[Phe(3-COOH)]AAFF[PyrS2(4)][3Thi][Bta][dA]-NH2 (staple 1-4, 4-11; reading uncertain) [I-2094]	9.7 µM		
Ac-[αAllylPro]D[tBuAla][B5(4)]D[(CMe2CO2H)TriAzDab]AAFL[PyrS2″][3Thi][Bta]Q-NH2 (staple 1-4, 4-11) [I-2079]	15.1 µM		
Ac-[αAllylPro][d(βAsp)]I[B5(9)]DEAAFQ[S8]F[Bta]Q-NH2 (staple 1-4, 4-11, Stapled peptide composition; later-eluting HPLC peak (staple isomer)) [I-669]		0.451 µM	
Ac-[αAllylPro]D[tBuAla][B5(4)]D[(CH2CH2CO2H)TriAzDap]AAFL[PyrS2″][3Thi][Bta]Q-NH2 (staple 1-4, 4-11) [I-2082]	7.7 µM		
Ac-[αAllylPro]D[tBuAla][B5(4)]D[Phe(3-COOH)]AAFL[PyrS2(4)][3Thi][Bta][dA]-NH2 (staple 1-4, 4-11; reading uncertain) [I-2090]	5.9 µM		
Ac-[αAllylPro]DI[B5(5)][d(βAsp)]EAAFQ[S8]F[Bta]Q-NH2 (staple 1-4, 4-11, Stapled peptide composition) [I-674]		5 µM	
Ac-[αAllylPro]DI[B5(9)]DEAWFQ[S8]F[Bta]Q-NH2 (staple 1-4, 4-11, Stapled peptide composition; earlier-eluting HPLC peak (staple isomer)) [I-664]		0.996 µM	
Ac-[αAllylPro]DI[B5(9)]DEAWFQ[S8]F[Bta]Q-NH2 (staple 1-4, 4-11, Stapled peptide composition; later-eluting HPLC peak (staple isomer)) [I-665]		0.923 µM	
Ac-[αAllylPro]D[tBuAla][B5(4)]D[Phe(3-COOH)]AAFL[PyrS2(4)][2F3MeF][Bta][dQ]-NH2 (staple 1-4, 4-11; reading uncertain) [I-2089]	2.9 µM		
Ac-[αAllylPro]D[tBuAla][B5(4)]D[Phe(3-COOH)]AAFF[PyrS2″][Phe(2-CF3)][Bta][dQ]-NH2 (staple 1-4, 4-11) [I-2093]	5 µM		
